# Experimental data from patent US20220380478A1 (TONIX PHARMA, published 2022).
# T1: CD32aH (FcγRIIaH) (UniProt P12318 34-217)
# T1 sequence (looked up): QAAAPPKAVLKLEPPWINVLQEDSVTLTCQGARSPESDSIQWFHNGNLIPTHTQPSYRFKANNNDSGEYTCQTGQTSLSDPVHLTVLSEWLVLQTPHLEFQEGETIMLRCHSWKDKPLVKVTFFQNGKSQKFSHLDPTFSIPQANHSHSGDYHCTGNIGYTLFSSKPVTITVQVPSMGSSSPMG
# Columns and labels:
# FcγRIA (CD64) [1] = target: T2, FcγRIA (CD64) (UniProt P12314 16-292, limits assumed); experiment: SPR (Biacore T200); mAb captured on Protein A, FcγRIA injected
# T2 construct: also called FcgRIa; FcγR1A
# T2 sequence (P12314 16-292 limits assumed): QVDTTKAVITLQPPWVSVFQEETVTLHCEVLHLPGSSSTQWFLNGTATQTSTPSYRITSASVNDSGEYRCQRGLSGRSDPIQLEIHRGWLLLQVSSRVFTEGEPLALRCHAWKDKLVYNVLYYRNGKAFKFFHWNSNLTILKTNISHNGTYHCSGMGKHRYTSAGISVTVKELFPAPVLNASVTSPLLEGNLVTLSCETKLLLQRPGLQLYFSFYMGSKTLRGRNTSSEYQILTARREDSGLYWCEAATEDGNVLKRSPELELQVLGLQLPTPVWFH
# Method: (§1) Specifically, FcγRIA was injected over anti-CD154 antibody pools immobilized onto a Protein A surface (2,000 Rus; Cat #Z02201 […] ®, Piscataway, N.J.), using PBST pH 7.4 (PBS with 0.05% Tween 20) as the running buffer. […] The regeneration was conducted with 1×60s 10 mM glycine pH 1.5, flow 30 μL/min.
# CD16aF (FcγRIIIaF) [2] = target: T3, CD16aF (FcγRIIIaF) (UniProt P08637 17-208); experiment: SPR (Biacore T200); mAb captured on Protein A, FcγR injected; steady-state affinity
# T3 sequence (P08637 17-208): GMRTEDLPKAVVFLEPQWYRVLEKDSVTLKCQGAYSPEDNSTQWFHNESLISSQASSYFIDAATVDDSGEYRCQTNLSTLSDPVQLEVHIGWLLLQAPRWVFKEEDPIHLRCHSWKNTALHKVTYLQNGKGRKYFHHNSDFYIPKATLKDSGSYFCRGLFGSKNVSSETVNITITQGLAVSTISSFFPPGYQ
# Method: The analytes were antigens in the FcγR panel (CD16aF, CD16aV, CD32aH, CD32bF; National Research Council, Canada), which were resuspended in PBST containing 3.4 mM EDTA and 0.05% Tween20.
# FcγRIA (CD64) [3] = target: T2, FcγRIA (CD64); experiment: SPR (Biacore T200), FcγRIA binding; run with TNX06-TNX13
# FcγRIA (CD64) [4] = target: T2, FcγRIA (CD64); experiment: SPR (Biacore T200); mAb captured on Protein A, FcγRIA injected; run with TNX01-TNX05
# Method: as §1
# CD16aF (FcγRIIIaF) [5] = target: T3, CD16aF (FcγRIIIaF); experiment: SPR (Biacore T200), low-affinity FcγR panel
# FcγRIA (CD64) [6] = target: T2, FcγRIA (CD64); experiment: SPR (Biacore T200), FcγRIA binding
# FcγRIA (CD64) [7] = target: T2, FcγRIA (CD64); experiment: SPR (Biacore T200); mAb captured on Protein A, FcγRIA injected; steady-state end-point analysis
# Method: as §1
# CD32aH (FcγRIIaH) = target: T1, CD32aH (FcγRIIaH); experiment: SPR (Biacore T200), low-affinity FcγR panel
# CD16aV (FcγRIIIaV) = CD16aV (FcγRIIIaV) (UniProt P08637 17-208); experiment: SPR (Biacore T200), low-affinity FcγR panel
# CD16aV (FcγRIIIaV), sequence (P08637 17-208 F176V): as the sequence (P08637 17-208) above, with F160V counted along it
binder,measurement,setting,value
"TNX05 anti-CD154 monoclonal antibody (antibody, human IgG4 S228P, kappa, also called hu5c8 mutated-IgG4 (IgG4 S228P/L235A)) heavy: not shown light: DIVLTQSPATLSVSPGERATISCRASQRVSSSTYSYMHWYQQKPGQPPKLLIKYASNLESGVPARFSGSGSGTDFTLTISSVEPEDFATYYCQHSWEIPPTFGGGTKLEIKRTVAAPSVFIFPPSDEQLKSGTASVVCLLNNFYPREAKVQWKVDNALQSGNSQESVTEQDSKDSTYSLSSTLTLSKADYEKHKVYACEVTHQGLSSPVTKSFNRGEC",fold loss of activity (against TNX02),FcγRIA (CD64) [1],300 fold
same,binding result,CD16aF (FcγRIIIaF) [2],binds
"TNX02 anti-CD154 monoclonal antibody (antibody, human IgG1, kappa, also called IgG1 (wildtype)) heavy: not shown light: DIVLTQSPATLSVSPGERATISCRASQRVSSSTYSYMHWYQQKPGQPPKLLIKYASNLESGVPARFSGSGSGTDFTLTISSVEPEDFATYYCQHSWEIPPTFGGGTKLEIKRTVAAPSVFIFPPSDEQLKSGTASVVCLLNNFYPREAKVQWKVDNALQSGNSQESVTEQDSKDSTYSLSSTLTLSKADYEKHKVYACEVTHQGLSSPVTKSFNRGEC",Kd,FcγRIA (CD64) [3],~0.04 nM
same,Kd,FcγRIA (CD64) [4],~0.03 nM
same,binding result,CD16aF (FcγRIIIaF) [2],binds
"TNX06 anti-CD154 monoclonal antibody (antibody, human IgG4, kappa, also called IgG4 Wild Type) heavy: not shown light: DIVLTQSPATLSVSPGERATISCRASQRVSSSTYSYMHWYQQKPGQPPKLLIKYASNLESGVPARFSGSGSGTDFTLTISSVEPEDFATYYCQHSWEIPPTFGGGTKLEIKRTVAAPSVFIFPPSDEQLKSGTASVVCLLNNFYPREAKVQWKVDNALQSGNSQESVTEQDSKDSTYSLSSTLTLSKADYEKHKVYACEVTHQGLSSPVTKSFNRGEC",binding result,CD16aF (FcγRIIIaF) [5],binds
same,binding result,FcγRIA (CD64) [6],binds
"TNX01 anti-CD154 monoclonal antibody (antibody, human IgG1, kappa, N297Q, also called IgG1 (N297Q)) heavy: not shown light: DIVLTQSPATLSVSPGERATISCRASQRVSSSTYSYMHWYQQKPGQPPKLLIKYASNLESGVPARFSGSGSGTDFTLTISSVEPEDFATYYCQHSWEIPPTFGGGTKLEIKRTVAAPSVFIFPPSDEQLKSGTASVVCLLNNFYPREAKVQWKVDNALQSGNSQESVTEQDSKDSTYSLSSTLTLSKADYEKHKVYACEVTHQGLSSPVTKSFNRGEC",fold loss of activity (against TNX02),FcγRIA (CD64) [7],3000 fold
"TNX13 anti-CD154 monoclonal antibody (antibody, human IgG1, kappa, also called IgG1 (C226S, P238S)) heavy: not shown light: DIVLTQSPATLSVSPGERATISCRASQRVSSSTYSYMHWYQQKPGQPPKLLIKYASNLESGVPARFSGSGSGTDFTLTISSVEPEDFATYYCQHSWEIPPTFGGGTKLEIKRTVAAPSVFIFPPSDEQLKSGTASVVCLLNNFYPREAKVQWKVDNALQSGNSQESVTEQDSKDSTYSLSSTLTLSKADYEKHKVYACEVTHQGLSSPVTKSFNRGEC",fold loss of binding activity (against TNX02),CD32aH (FcγRIIaH),17 fold
same,binding result,CD16aV (FcγRIIIaV),no binding
same,binding result,CD16aF (FcγRIIIaF) [5],no binding
same,binding result,FcγRIA (CD64) [6],binds
"TNX09 anti-CD154 monoclonal antibody (antibody, human IgG4 S228P, kappa, F234A L235A, also called IgG4 (S228P, F234A, L235A)) heavy: not shown light: DIVLTQSPATLSVSPGERATISCRASQRVSSSTYSYMHWYQQKPGQPPKLLIKYASNLESGVPARFSGSGSGTDFTLTISSVEPEDFATYYCQHSWEIPPTFGGGTKLEIKRTVAAPSVFIFPPSDEQLKSGTASVVCLLNNFYPREAKVQWKVDNALQSGNSQESVTEQDSKDSTYSLSSTLTLSKADYEKHKVYACEVTHQGLSSPVTKSFNRGEC",binding result,CD32aH (FcγRIIaH),no binding
same,fold loss (against TNX02),CD16aV (FcγRIIIaV),~12 fold
same,binding result,CD16aF (FcγRIIIaF) [5],no binding
same,fold weaker binding than TNX02,FcγRIA (CD64) [6],3800 fold
"TNX12 anti-CD154 monoclonal antibody (antibody, human IgG1, kappa, also called IgG1 (C229S, P238S)) heavy: not shown light: DIVLTQSPATLSVSPGERATISCRASQRVSSSTYSYMHWYQQKPGQPPKLLIKYASNLESGVPARFSGSGSGTDFTLTISSVEPEDFATYYCQHSWEIPPTFGGGTKLEIKRTVAAPSVFIFPPSDEQLKSGTASVVCLLNNFYPREAKVQWKVDNALQSGNSQESVTEQDSKDSTYSLSSTLTLSKADYEKHKVYACEVTHQGLSSPVTKSFNRGEC",binding result,CD32aH (FcγRIIaH),no binding
same,binding result,CD16aV (FcγRIIIaV),no binding
same,binding result,CD16aF (FcγRIIIaF) [5],no binding
same,binding result,FcγRIA (CD64) [6],binds
"TNX08 anti-CD154 monoclonal antibody (antibody, human IgG4 S228P, kappa, also called IgG4 (S228P, L235E)) heavy: not shown light: DIVLTQSPATLSVSPGERATISCRASQRVSSSTYSYMHWYQQKPGQPPKLLIKYASNLESGVPARFSGSGSGTDFTLTISSVEPEDFATYYCQHSWEIPPTFGGGTKLEIKRTVAAPSVFIFPPSDEQLKSGTASVVCLLNNFYPREAKVQWKVDNALQSGNSQESVTEQDSKDSTYSLSSTLTLSKADYEKHKVYACEVTHQGLSSPVTKSFNRGEC",binding result,CD16aF (FcγRIIIaF) [5],binds
same,fold weaker binding than TNX02,FcγRIA (CD64) [6],2600 fold
"TNX11 anti-CD154 monoclonal antibody (antibody, human IgG1, kappa, also called IgG1 (C226S, C229S, P238S)) heavy: not shown light: DIVLTQSPATLSVSPGERATISCRASQRVSSSTYSYMHWYQQKPGQPPKLLIKYASNLESGVPARFSGSGSGTDFTLTISSVEPEDFATYYCQHSWEIPPTFGGGTKLEIKRTVAAPSVFIFPPSDEQLKSGTASVVCLLNNFYPREAKVQWKVDNALQSGNSQESVTEQDSKDSTYSLSSTLTLSKADYEKHKVYACEVTHQGLSSPVTKSFNRGEC",binding result,FcγRIA (CD64) [6],binds
"TNX10 anti-CD154 monoclonal antibody (antibody, human IgG1, kappa, L234A L235A, also called IgG1 (L234A, L235A)) heavy: not shown light: DIVLTQSPATLSVSPGERATISCRASQRVSSSTYSYMHWYQQKPGQPPKLLIKYASNLESGVPARFSGSGSGTDFTLTISSVEPEDFATYYCQHSWEIPPTFGGGTKLEIKRTVAAPSVFIFPPSDEQLKSGTASVVCLLNNFYPREAKVQWKVDNALQSGNSQESVTEQDSKDSTYSLSSTLTLSKADYEKHKVYACEVTHQGLSSPVTKSFNRGEC",binding result,CD32aH (FcγRIIaH),no binding
same,fold loss (against TNX02),CD16aV (FcγRIIIaV),~12 fold
same,binding result,CD16aF (FcγRIIIaF) [5],no binding
same,fold weaker binding than TNX02,FcγRIA (CD64) [6],1800 fold
"TNX03 anti-CD154 monoclonal antibody (antibody, human IgG1, kappa, N297G, also called IgG1 (N297G)) heavy: not shown light: DIVLTQSPATLSVSPGERATISCRASQRVSSSTYSYMHWYQQKPGQPPKLLIKYASNLESGVPARFSGSGSGTDFTLTISSVEPEDFATYYCQHSWEIPPTFGGGTKLEIKRTVAAPSVFIFPPSDEQLKSGTASVVCLLNNFYPREAKVQWKVDNALQSGNSQESVTEQDSKDSTYSLSSTLTLSKADYEKHKVYACEVTHQGLSSPVTKSFNRGEC",fold loss of activity (against TNX02),FcγRIA (CD64) [7],3000 fold
"TNX04 anti-CD154 monoclonal antibody (antibody, also called IgG1 (C220S, C226S, C229S, P238S)) heavy: not shown light: DIVLTQSPATLSVSPGERATISCRASQRVSSSTYSYMHWYQQKPGQPPKLLIKYASNLESGVPARFSGSGSGTDFTLTISSVEPEDFATYYCQHSWEIPPTFGGGTKLEIKRTVAAPSVFIFPPSDEQLKSGTASVVCLLNNFYPREAKVQWKVDNALQSGNSQESVTEQDSKDSTYSLSSTLTLSKADYEKHKVYACEVTHQGLSSPVTKSFNRGEC",fold loss of activity (against TNX02),FcγRIA (CD64) [1],11 fold
same,binding result,CD16aF (FcγRIIIaF) [2],no binding (tested: 12 µM to 0.062 µM)
